Assay results reported in the DeepSol protein solubility set.

Assay: soluble on expression in E. coli; label from the status in PepcDB or PDB records

| Sequence | soluble on expression in E. coli |
| --- | --- |
| MGQKRMNKSNKLVIINRAIPGGGKTSLIKQIEELAKSLGHSISVHSTDEYFIQTDEEGIRHYVVDKKKLNEYHQNNQEAFKQALENRIDIVVCDNTNFESWQSKPYTDMAREFGYKILLIDFKNRHLETPMDYGWDVAQCIKKPRGIAKHYDYDFYLERVLVEPQDYEKQNRELSLKALEFLKYNFDFDVIFYSFGEQLMPILTRMLVSVSKSHRKRLENYGKDIKTLEHHHHHHLEHHHHHHLEHHHHHHLEHHHHHHLEHHHHHHLEHHHHHHLEHHHHHH | not soluble |
| MGREFIPLFEDWAATYDQTVQGLDIQYKEAFRGYDHILDAIVRKSGTHVLEFGPGTGNLTAKLLDAGKTVFGIEPSPAMRKLASDKLSGRTEIVDGDFLTFPEPPFQADTIVSSYAFHHLTDEEKRAAIKQYGKYLHLHDKIVFADTVFENAQAYQQAIDKARSQGFYQLANDLETEHYPTLDALKEMFTAEGFAVRFTQQNDFVWIMEAIKRLEHHHHHH | not soluble |
| MGRRRSHERRDLPPNLYIRNNGYYCYRDPRTGKEFGLGRDRRIAITEAIQANIELFSGHKHKPLTARINSDNSVTLHSWLDRYEKILASRGIKQKTLINYMSKIKAIRRGLPDAPLEDITTKEIAAMLNGYIDEGKAASAKLIRSTLSDAFREAIAEGHITTNHVAATRAAKSEVRRSRLTADEYLKIYQAAESSPCWLRLAMELAVVTGQRVGDLCEMKWSDIVDGYLYVEQSKTGVKIAIPTALHIDALGISMKETLDKCKEILGGETIIASTRREPLSSGTVSRYFMRARKASGLSFEGDPPTFHELRSLSARLYEKQISDKFAQHLLGHKSDTMASQFRDDRGREWDKIEIK | soluble |
| MGRVTLRITGTQLLCQDEHPSLLAALESHNVEVEYQCREGYCGSCRTRLVAGQVDWITEPLAFIQPGEILPCCCRAKGDIEIEM | not soluble |
| MGRYIGPVCRLCRREGVKLYLKGERCYSPKCAMERRPYPPGQHGQKRARRPSDYAVRLREKQKLRRIYGISERQFRNLFEEASKKKGVTGSVFLGLLESRLDNVVYRLGFAVSRRQARQLVRHGHITVNGRRVDLPSYRVRPGDEIAVAEKSRNLELIRQNLEAMKGRKVGPWLSLDVEGMKGKFLRLPDREDLALPVNEQLVIEFYSR | soluble |
| MGSDFDHLVNSLSDVELLNLFIQSCSQTTINGVPVPRFPPEEIQKQFVGASYEHALYEAYLFYRHIKEYAQNLGVPLNKESKVLDFGCGWGRIIRFLFKDASDQNLLGIDVDPAMITLCNETLGRGIYKTASPHPPVEFISDNSLDIIFAYSVFSHLSEATAENWVKEFSRVLRPGGIFIATTQARYFLDFCQQFQEHPELIQTGWHKTLSQAFPDIHRAISDYENGKFVHSPTGAGDVRNSSFYGETVIPRTYIENHYEKYLKLQDFFDDVNRLPQALFVLQKILEHHHHHH | soluble |
| MGSDKIHHHHHHAACQDEDHTVPTLPSGNDPEINDPVVEFYDWEKNRTELLTSTDMVLLYGGGHHRTPYTWDKERVSSYIRYVDTDNQSHWLFDSFLFLEIMDTGTGGANKMFAKGYNLESANQADWTKLIDYYFQSETGIGALDASVKEASAILGTPRQKRQIVISIPEPIVYQHPEQASSSTKYWGKIDNQTLDFSNSADRIKACKWYIDQVRAKFNEKNYQHVELAGFYWLAEKATDTRDILNAVAIYLNKLKYSFNWIPYYGADGYNQWKSLGFNYAYFQPNYFFNESVPDSRLEDACQKALTYDMHMELEFDDNALNSRGKAYRLKNYMSAFKKHGIWEKKRLAYYQGSASLLTLKKSGNAADTQLYHEFCNFVISRPIRSSH | not soluble |
| MGSDKIHHHHHHAADHVKGDGKLTSKKISVADYNEIKVDGVIDFNYEQSDDPSTVEVTVDQNLHPYVNIEVKDRVLTIAFKGAKVDHFTKFIVKTNSKWLAAAKVSGNANFMVNSPLTGDETVIKANANSLVQLKETVTVGKLDLNVSGSANMVVNHLEADKIECDIDGSGSITIKKGNAKEGDYSIVSSGDIHAFGLAVPQLSCKVTGNGLAEVHATDNLKANVVGKGNIRYKGPTAVQQRIIGKGTVEEVKE | not soluble |
| MGSDKIHHHHHHAASEAEYGKVSKAWTLHADGSQEYRSSMELTLFTHTAMNSTYGESFIVYNPDFQTLKIHSSYTRQKDGTIVKTPDNAFVEVLPRFAADAPAYNQLKEMVVVHTGLELGATIYLDYSIITKPGYYPALDINERLQETSPVKECKVSISVPEGTPLACGLYGSPVKAVEESHDGIKEVHWTLRNIPASSREAFQPKNREASPHLVASTYPSGKAALATLDKRLKESQGYESKTFAQFLTDKSGNEQEKVNIIRDHILNNLSTCPIPMAMTGYTVRDIDTVLRSAYGTPLEIAQLLNVMLNAAGIPSEVLAVYPGHLDTDACGLAAIQTLAVKATVDGKDQYLSASPLTNRGGLDKVVSLSGTSIEIETTPIQIKESRSVAISADQAKDGFAICVLPAISAGIDSWGMSALNSKRSNLFELPSLIREEVTYTVTPAEGMKLQTSTQEQVISKPFGKVTRTITPRGNTIEVVRTIELNKQQFTPAEYSDVRSLIHEWTNPDNRVLLFSL | not soluble |
| MGSDKIHHHHHHADFVSDYIWRGAYQNSGFSVQPTLGLSYGNLSLSAWGSQSLTKTDGAQEFDINLSYTIGGLGITVTDYWWNGITMPYGDYKHDHHFEGTLAYNFGENFPLTLSWSTMFAGGDDNKDGDRAYSTYINASYNIACPAEITLTPSVGFTPWKGMYDADGAAFTDIALKASKNINITDHFSLPLFVQAIVSPSFDKTYLIAGLSIGF | not soluble |
| MGSDKIHHHHHHADSVKIGFITDMSGLYADIDGQGGLEAIKMAVADFGGKVNGKPIEVVYADHQNKADIAASKAREWMDRGGLDLLVGGTNSATALSMNQVAAEKKKVYINIGAGADTLTNEQCTPYTVHYAYDTMALAKGTGSAVVKQGGKTWFFLTADYAFGKALEKNTADVVKANGGKVLGEVRHPLSASDFSSFLLQAQSSKAQILGLANAGGDTVNAIKAAKEFGITKTMKLAALLMFINDVHALGLETTQGLVLTDSWYWNRDQASRQWAQRYFAKMKKMPSSLQAADYSSVTTYLKAVQAAGSTDSDKVMAQLKKMKIDDFYAKGYIRTDGSMIHDMYLMEVKKPSESKEPWDYYKVVATIPGEQAFTTKQETRCALWK | not soluble |
| MGSDKIHHHHHHAEDMVKPIENDKDAPGTVQDVKTESLPGAVKFTYTLPSDPDLLYVLAKYTNKTGKVMEFRSSFYTNSVTVEGFGDTDTYKVELYTVDRSENRSQPQIVEVVPLTPPILSCYESLSMVSDFGGMTFEMDNKFKSDLAIYVCTPDELGDMVLAETFYSAREEIVYSVRGYDAVPRRFGIFLQDKYGNETDTLFTELTPIYERELDKTKFREMYLQNDSRVDSYDGKMEYVWNGRISKDGDSGGVGLHTGTGTKDGPAVFTFDLGVLAKLSRFALWAIQDEKHFYNDMSPRRYEVWGCATEPNPDGSWDQWVKLLDMENVKPSGSPIGILTEDDIEAAKIGDQANVPLDMPRVRYIRIKCLKNWSNNYNICFTELTFWGNDNEE | not soluble |
| MGSDKIHHHHHHAGTYNPKNTTSFNINKSNYVAKGRIYKLRLPAAGRVVTNSDITLKNSMEWTCIPYGKDKNTYYLRKGTYYLTSSKNTNVKTAYTRLTKIRKNLETYVETKKNNDNSSLRAREIKVGQKIKAMGAMYDYDGIDYYRFTIDSPQMVTMKMTNAPIYQLGNGNIFSKMGITMFSDNNPVGDNTILYPETFSSKGNKSASQSWYLAKGTYYFSVSTRGLYNFQLTAVPDTRMVPADTEIESLKDTKDGVVASLRDALHAKTYELAWREKGSKFAPFSSSSNTTKVSTASATRYLKVNGHEIPVQIGRKLVNGQTYEFVARGVSNPNYIRYGNPETDNYFGAWTKIVEHTYYAPANGVPGAVELNAQADNTYHNIHVSWTKIDTAQSYRVAYRQKGTNKWYYEVTDQDSNAVTGITRNKTYELKLQALNGKEEGPWSTVKEVFLK | not soluble |
| MGSDKIHHHHHHALLWFSRFQRTGKLCVSLGWLLLTLLSLQPVADSLLKPIEDTYPTWRGEQPVNYVVVLGGGYTWNPEWAPSSNLINNSLPRLTEGIRLWQANPGSKMIFTGAAAKTNPVSTAEAGARVAESLGVPRSDIIVLDRPKDTEEEALAVKRAIGDAPFLLVTSASHLPRAMIFFRHAGLDPLPAPANQLAVTSPLNPWERAIPSPVWLMHSDRVGYETLGRVWQWLKGSSGEPGQE | not soluble |
| MGSDKIHHHHHHAPTSIPDSALRTAAQLREQALADSTGFAVVESLTTEVGPRIAGGEADPRAVAWAKAKFKSLGFDKVWTEPVTFPKWERRSEQAAVIGAHAQPLHITALGGSPGGTVEGEIVRFENLAALQAAPAGSLAGKIAFVDYQMVKARDGKDYGNGGAVRSKGPSEAIRKGAIGFVMRSAGTDSHRVPHTGITRFDEGLTPVPAAALSVPDANQLARLAALGSTRVRLALDCGWDGTATSYNVIGEITGRSKPKEVVVIGGHLDSWDLGTGAIDDGAGVAITMAAGHLIGQLKQAPKRTIRVVAFANEEQGLYGGKAYAAAHGKDAKDMALHQIGAESDFGAGRIYAFNTGSAAPEQSRAAT | not soluble |
| MGSDKIHHHHHHAQFKIGGKKINVGKVVQAGSDAAKAITLSDSDIAAMSKEYMQWMDTHNPLTAADSEYGKRLEKLTGHIKEVDGLKVNFGVYEVVDVNAFACGDGSVRICAGLMDIMTDDEVMAVVGHEIGHVIHTDSKDAMKSAYLRSAVKNAAGAASSTVSKLTDSELGAMAEALAGAQYSQKQESEADDYGFEFSIKHNIDPYAMYNALNKLLELSAEAPKESKFQKMFSSHPDTAKRVARAKEKADNYTKNK | not soluble |
| MGSDKIHHHHHHAQIADRVYKTDYHIDPEKARELSVELDNISFFKDNEYTGKFTKGYSLPGLWVQGKAVYYPLRNIKLEAGVHMLIYHGANKYPSMAYQDIAYWKGDQYQKGVHVLPYFRAQMALSDHVNIVLGNIYGASNHNLIEPLYNPELNLTCDPEAGLQLLYDSKAFDLDVWVNWQSFIFREDVHQEAFTVGISSRLKYNDPASRFHFYTPVQGLVQHRGGEIDTIFNNSVQTLMNGAIGVGGVWNTGHRIFKNLNVELDATGYYQQAGEIWPFDSGYGLYARASADIYDFRVKTSYWTCEDFISMFGSPFFGAASMIDEGVTFDRPQMIYLGVEYSRQLAKGFSIGVDVDVFHHLSGDMNDADGVKQPMGSATSFTAGVYMRINPSFLIKKF | not soluble |
| MGSDKIHHHHHHAQKKVIIEDEEPNSVMFVSTNKAGDEIIRIMNETRLPRFHEPKAPRFVLTDRQGKFALGIGGYVRATAEYDFGGIVKDVDFYPALIPNKGSADRARNQFQMDISTSTLFLKLVGHTKRLGDFVVYTAANFRGDGKTFELQNAYATFLGFTLGYSYGNFMDLAALPPTIDFAGPNGSAFYRTTQLSYMCDKLKNWKFGVGVEMPSVDGTTNQYLTINTQRMPDFTASAQYNWNANSHLKLAAIVRSMTYSSSVDNKAHSKAGYGLQASTSFNVTPKWQVYGQVNYGKGIGQYLNDLSNLNVDIVPNPEKEGRMQTLPMLGWFAGLQYNISKNVFVSGTYSLSRLYSEHTYPSDEPDMYRKGQYLVANLFWNVTSNLQVGAEYLRGWRTDFSSNTRHANRMNALVQYSF | not soluble |
| MGSDKIHHHHHHAQKNAAAVTLNLAKAVTQSPKTVLMSELASDVRYFPLETTDNCLLGNECSIIYAGNSIIAGDAQTRSFYRFDKNGKFMNKIGRQGQGPEEYAVGLLFFTDPDNQKLYVQDFQDIICYGFNGKFLRRIPAPHLNMGTGAVDGQGSILYCDNNYFMRKDNPQQLFLIDENGKKLKIWKGYMEPGKKYGVNLSTRDVMYCYGGDIYFKPALENLIYKIDANRKKTLAWKFDCSGKDVDVSANEIDPGKRFQSIAVQQVFESDRYFFVLYVLKNESFVGLYDKQKKSFSNVIIKDDLAAGFDFTPPGTGLGNQLANARMVGYLSKGKRYSKALLPERKKELDELINRLDEEDNPVMVVVTLK | not soluble |
